Laboratory results as given in US20160274129.

T1: α-fructosyl-valyl-histidyl-leucyl-threonyl-proryl-glutamic acid
T1 chain: VHLTPE

B1: CFP-T7-H2 (protein)
chain: MTSNRADTRVIVVGGGGTIGSSTALHLVRSGYAPANITVLDTFEIPSAQSAGHDLNKIMGIALRNKVDLQMSLEARQMWKEDELFQPFFHNTGRMDCEHTPEGIEDLKKLYQALHDAGAGLEKTHAWLDNEDEILSKMPLLQRDQIQGWKAIWSQDGGWLAAAKAINAIGQFLKERGVKFGFGGAGSFKQPLFDDEGTTCIGVETADGTKYYADKVVLAAGAWSPTLVDLEDQCCSKAWVYAHIQLTPEEAAEYKGVPVVYNGEFGFFFEPDEFGVIKVCDEFPGFSRFKEHQPYGAPSPKRISVPRSHAKHPTDTYPDASEVSIKKAIATFLPRFQDKELFNRALCWCTDTADAALLMCEHPKWKNFILATGDSGHSFKILPNVGKYVVELIEGRLPEEMAYQWRWRPGGDALKSRRAAPPKDLADMPGWKHDPKL
B2: EFP-T5 (protein)
chain: MAHSRASTKVVVVGGGGTIGSSTALHLIRSGYTPSNITVLDVYKTPSLQSAGHDLNKIMGIRLRNGPDLQLSLESLDMWQNDELFKPFFHQVGMIDCSSSKEGIENLRRKYQTLLDAGIGLEKTNVWLESEDEILAKAPNFTREQVKGWKGLFCTDGGWLAAAKAINAIGIFLQDKGVKFGFGDAGTFQQPLFAADGKTCIGLETTDGTKYFADKVVLAAGAWSPTLVDLEDQCVSKAWVFAHIQLTPKEADAYKNVPVVYDGEYGFFFEPDEYGVIKVCDEFPGFSRFKLHQPYGAASPKMISVPRSHAKHPTDTYPDASEVTIRKAIARFLPEFKDKELFNRTMCWCTDTADANLLICEHPKWKNFILATGDSGHSFKLLPNIGKYVVELLEGSLSQEMAGAWRWRPGGDALRSRRGAPAKDLAEMPGWKHDAHL
B3: EFP-T5-R62D (protein)
chain: MAHSRASTKVVVVGGGGTIGSSTALHLIRSGYTPSNITVLDVYKTPSLQSAGHDLNKIMGIDLRNGPDLQLSLESLDMWQNDELFKPFFHQVGMIDCSSSKEGIENLRRKYQTLLDAGIGLEKTNVWLESEDEILAKAPNFTREQVKGWKGLFCTDGGWLAAAKAINAIGIFLQDKGVKFGFGDAGTFQQPLFAADGKTCIGLETTDGTKYFADKVVLAAGAWSPTLVDLEDQCVSKAWVFAHIQLTPKEADAYKNVPVVYDGEYGFFFEPDEYGVIKVCDEFPGFSRFKLHQPYGAASPKMISVPRSHAKHPTDTYPDASEVTIRKAIARFLPEFKDKELFNRTMCWCTDTADANLLICEHPKWKNFILATGDSGHSFKLLPNIGKYVVELLEGSLSQEMAGAWRWRPGGDALRSRRGAPAKDLAEMPGWKHDAHL
B4: EFP-T5-62D/63H/106K/110L/113K/355S (protein)
chain: MAHSRASTKVVVVGGGGTIGSSTALHLIRSGYTPSNITVLDVYKTPSLQSAGHDLNKIMGIDHRNGPDLQLSLESLDMWQNDELFKPFFHQVGMIDCSSSKEGIEKLRRLYQKLLDAGIGLEKTNVWLESEDEILAKAPNFTREQVKGWKGLFCTDGGWLAAAKAINAIGIFLQDKGVKFGFGDAGTFQQPLFAADGKTCIGLETTDGTKYFADKVVLAAGAWSPTLVDLEDQCVSKAWVFAHIQLTPKEADAYKNVPVVYDGEYGFFFEPDEYGVIKVCDEFPGFSRFKLHQPYGAASPKMISVPRSHAKHPTDTYPDASEVTIRKAIARFLPEFKDKELFNRTMCWCTDTADSNLLICEHPKWKNFILATGDSGHSFKLLPNIGKYVVELLEGSLSQEMAGAWRWRPGGDALRSRRGAPAKDLAEMPGWKHDAHL
B5: NvFX (protein)
chain: MTTPRKETTVLIIGGGGTIGSSTALHLLRAGYTPSNITVLDTYPIPSAQSAGNDLNKIMGIRLRNKVDLQLSLEARDMWRNDALFRPFFHNTGRLDCESSAEGVEGLRREYQKLVEAGVGLEETHEWLDSEEAILEKAPLLQREEIEGWKAIWSEEGGWLAAAKAINAIGEELQRQGVRFGFGGAGSFKRPLFADDGTTCIGVETVDGTQYHADKVVLAAGAWSPALVDLEEQCCSKAWVYAHMQLTPEEAAVYKGCPVVYHGDVGFFFEPNENGVIKVCDEFPGFTRFKQHQPYGAPAPKPVSVPRSHAKHPTDTYPDASEESIKRAVSTFLPRFKDKPLFNRALCWCTDTADSALLICEHPRWKNFILATGDSGHSFKLLPIIGKHVVELVEGRLADDLAEAWRWRPGQGDARKSIRAAPAKDLADMPGWKHDQDSESR
B6: NvFX-62D/106K/110L (protein)
chain: MTTPRKETTVLIIGGGGTIGSSTALHLLRAGYTPSNITVLDTYPIPSAQSAGNDLNKIMGIDLRNKVDLQLSLEARDMWRNDALFRPFFHNTGRLDCESSAEGVEKLRRLYQKLVEAGVGLEETHEWLDSEEAILEKAPLLQREEIEGWKAIWSEEGGWLAAAKAINAIGEELQRQGVRFGFGGAGSFKRPLFADDGTTCIGVETVDGTQYHADKVVLAAGAWSPALVDLEEQCCSKAWVYAHMQLTPEEAAVYKGCPVVYHGDVGFFFEPNENGVIKVCDEFPGFTRFKQHQPYGAPAPKPVSVPRSHAKHPTDTYPDASEESIKRAVSTFLPRFKDKPLFNRALCWCTDTADSALLICEHPRWKNFILATGDSGHSFKLLPIIGKHVVELVEGRLADDLAEAWRWRPGQGDARKSIRAAPAKDLADMPGWKHDQDSESR
B7: AnFX (protein)
chain: MTPRANTKIIVVGGGGTMGSSTALHLLRAGYTPSNITVLDTCPIPSAQSAGYDLNKIMGIRLRNKPDLQLSLEALDMWKNDPLFKPFFHNVGMIDVSSTEEGIEGLRKKYQSLLDAGIGLEKTNFMLESEDEILAKAPHFTQEQIKGWKGLFCGDGGWLAAAKAINAIGQFLKEQGVKFGFGGAGTFKKPLFADAHEKTCIGVETVDGTKYYADKVVLAAGAWSSTLVDLEEQCVSKAWVFAHIQLTPAEAAAYKNTPVIYDGDYGFFFEPNENGIIKVCDEFPGFTHFKMHQPYGSPAPKPISVPRSHAKHPTDTYPHASEVTIKKAINRFLPRFNDKELFNRAMCWCTDTADANLLVCEHPRWKGFYLATGDSGHSFKLLPNIGKHVVELLEERLESVFKDAWRWRPGSGDALKSRRAAPAKDLADMPGWRNEAKM
B8: AnFX-61D/105K/109L (protein)
chain: MTPRANTKIIVVGGGGTMGSSTALHLLRAGYTPSNITVLDTCPIPSAQSAGYDLNKIMGIDLRNKPDLQLSLEALDMWKNDPLFKPFFHNVGMIDVSSTEEGIEKLRKLYQSLLDAGIGLEKTNFMLESEDEILAKAPHFTQEQIKGWKGLFCGDGGWLAAAKAINAIGQFLKEQGVKFGFGGAGTFKKPLFADAHEKTCIGVETVDGTKYYADKVVLAAGAWSSTLVDLEEQCVSKAWVFAHIQLTPAEAAAYKNTPVIYDGDYGFFFEPNENGIIKVCDEFPGFTHFKMHQPYGSPAPKPISVPRSHAKHPTDTYPHASEVTIKKAINRFLPRFNDKELFNRAMCWCTDTADANLLVCEHPRWKGFYLATGDSGHSFKLLPNIGKHVVELLEERLESVFKDAWRWRPGSGDALKSRRAAPAKDLADMPGWRNEAKM
B9: AnFX-61D/62H/101K/105K/109L/112K/355S (protein)
chain: MTPRANTKIIVVGGGGTMGSSTALHLLRAGYTPSNITVLDTCPIPSAQSAGYDLNKIMGIDHRNKPDLQLSLEALDMWKNDPLFKPFFHNVGMIDVSSTEKGIEKLRKLYQKLLDAGIGLEKTNFMLESEDEILAKAPHFTQEQIKGWKGLFCGDGGWLAAAKAINAIGQFLKEQGVKFGFGGAGTFKKPLFADAHEKTCIGVETVDGTKYYADKVVLAAGAWSSTLVDLEEQCVSKAWVFAHIQLTPAEAAAYKNTPVIYDGDYGFFFEPNENGIIKVCDEFPGFTHFKMHQPYGSPAPKPISVPRSHAKHPTDTYPHASEVTIKKAINRFLPRFNDKELFNRAMCWCTDTADSNLLVCEHPRWKGFYLATGDSGHSFKLLPNIGKHVVELLEERLESVFKDAWRWRPGSGDALKSRRAAPAKDLADMPGWRNEAKM
B10: PnFX (protein)
chain: MAPSRANTSVIVVGGGGTIGSSTALHLVRSGYTPSNVTVLDAYPIPSSQSAGNDLNKIMGVSLRNPVDLQLALEARQMWNEDELFKKFFHNTGRLDCAHGEKDIADLKSGYQALVDAGLDATNEWLDSEDEILKRMPLLSRDQIKGWKAIFSKDGGWLAAAKAINAVGEYLRDQGVRFGFYGAGSFKAPLLAEGVCIGVETVDGTRYYADKVVLAAGAWSPTLVELHEQCVSKAWVYGHIQLTPEEAARYKNSPVVYNGDVGFFFEPNEHGVIKVCDEFPGFTRFKMHQPFGAKAPKRISVPRSHAKHPTDTIPDASDVSIRRAIATFMPQFKNKKMFNQAMCWCTDTADAALLICEHPEWKNFVLATGDSGHSFKLLPNIGKHVVELLEGTLADDLAHAWRWRPGSGDALKSRRSAPAKDLADMPGWNHDKPRANL
B11: PnFX-62D/106K/110L/113K (protein)
chain: MAPSRANTSVIVVGGGGTIGSSTALHLVRSGYTPSNVTVLDAYPIPSSQSAGNDLNKIMGVDLRNPVDLQLALEARQMWNEDELFKKFFHNTGRLDCAHGEKDIAKLKSLYQKLVDAGLDATNEWLDSEDEILKRMPLLSRDQIKGWKAIFSKDGGWLAAAKAINAVGEYLRDQGVRFGFYGAGSFKAPLLAEGVCIGVETVDGTRYYADKVVLAAGAWSPTLVELHEQCVSKAWVYGHIQLTPEEAARYKNSPVVYNGDVGFFFEPNEHGVIKVCDEFPGFTRFKMHQPFGAKAPKRISVPRSHAKHPTDTIPDASDVSIRRAIATFMPQFKNKKMFNQAMCWCTDTADAALLICEHPEWKNFVLATGDSGHSFKLLPNIGKHVVELLEGTLADDLAHAWRWRPGSGDALKSRRSAPAKDLADMPGWNHDKPRANL
B12: PnFX-62D/63H/106K/110L/113K/351S (protein)
chain: MAPSRANTSVIVVGGGGTIGSSTALHLVRSGYTPSNVTVLDAYPIPSSQSAGNDLNKIMGVDHRNPVDLQLALEARQMWNEDELFKKFFHNTGRLDCAHGEKDIAKLKSLYQKLVDAGLDATNEWLDSEDEILKRMPLLSRDQIKGWKAIFSKDGGWLAAAKAINAVGEYLRDQGVRFGFYGAGSFKAPLLAEGVCIGVETVDGTRYYADKVVLAAGAWSPTLVELHEQCVSKAWVYGHIQLTPEEAARYKNSPVVYNGDVGFFFEPNEHGVIKVCDEFPGFTRFKMHQPFGAKAPKRISVPRSHAKHPTDTIPDASDVSIRRAIATFMPQFKNKKMFNQAMCWCTDTADSALLICEHPEWKNFVLATGDSGHSFKLLPNIGKHVVELLEGTLADDLAHAWRWRPGSGDALKSRRSAPAKDLADMPGWNHDKPRANL

Biological target: T1, α-fructosyl-valyl-histidyl-leucyl-threon …

Protein | Specific activity (U/mg), 1 mM αF6P, purified enzyme | further results
B1 | – | αF6P oxidation activity (crude enzyme; αFVH oxidation activity = 100) (relative (αFVH = 100)): 0.0735; αF6P/αFV: 0.000536; αF6P/αFVH: 0.000735
B2 | 0 U/mg | –
B3 | 0.0043 U/mg | –
B4 | 1.12 U/mg | –
B5 | 0 U/mg | –
B6 | 0.003 U/mg | –
B7 | 0 U/mg | –
B8 | 0.106 U/mg | –
B9 | 0.283 U/mg | –
B10 | 0.0091 U/mg | –
B11 | 0.125 U/mg | fold of specific activity on αF6P against PnFX before mutation: specific activity on αF6P was elevated by 13.7 fold
B12 | 0.667 U/mg | –
